Publication doi:10.1101/569459 (bioRxiv, 2019)

Molecular target: MBP::PP1β (UniProt P62140 1-327)
Experiment: pull-down

Chain of MBP::PP1β (P62140 whole entry): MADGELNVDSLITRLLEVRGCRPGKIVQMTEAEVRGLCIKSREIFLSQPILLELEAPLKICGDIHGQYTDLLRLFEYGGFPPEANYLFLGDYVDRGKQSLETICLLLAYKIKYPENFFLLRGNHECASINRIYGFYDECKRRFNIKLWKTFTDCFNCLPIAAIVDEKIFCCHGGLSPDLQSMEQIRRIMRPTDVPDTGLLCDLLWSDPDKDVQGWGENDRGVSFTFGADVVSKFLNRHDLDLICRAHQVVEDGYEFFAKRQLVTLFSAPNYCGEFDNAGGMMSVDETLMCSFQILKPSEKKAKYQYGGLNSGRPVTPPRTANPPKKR

Binder	binding result
GST::MKLP1_(620-858) (wild type) (domain or fragment, UniProt Q02241-2 620-856, looked up) ETTMKWEKECERRVAAKQLEMQNKLWVKDEKLKQLKAIVTEPKTEKPERPSRERDREKVTQRSVSPSPVPLLFQPDQNAPPIRLRHRRSRSAGDRWVDHKPASNMQTETVMQPHVPHAITVSVANEKALAKCEKYMLTHQELASDGEIETKLIKGDIYKTRGGGQSVQFTDIETLKQESPNGSRKRRSSTVAPAQPDGAESEWTDVETRCSVAVEMRAGSQLGPGYQHHAQPKRKKP	binds
GST::MKLP1_(620-858) AQA mutant (domain or fragment, UniProt Q02241-2 620-856, looked up) ETTMKWEKECERRVAAKQLEMQNKLWVKDEKLKQLKAIVTEPKTEKPERPSRERDREKVTQRSVSPSPVPLLFQPDQNAPPIRLRHRRSRSAGDRWVDHKPASNMQTETVMQPHVPHAITVSVANEKALAKCEKYMLTHQELASDGEIETKLIKGDIYKTRGGGQSAQATDIETLKQESPNGSRKRRSSTVAPAQPDGAESEWTDVETRCSVAVEMRAGSQLGPGYQHHAQPKRKKP	binds
